Assay results taken from publication PMC9225179, “RNA Polymerase II Transcription in Pneumocystis: TFIIB from Pneumocystis carinii Can Replace the Transcriptional Functions of Fission Yeast Schizosaccharomyces pombe TFIIB In Vivo and In Vitro” (International Journal of Molecular Sciences, 2022).

Target: T1, Schizosaccharomyces pombe TFIIB (S. pombe, UniProt O13749 1-340)
T1 construct: General transcription factor TFIIB of S. pombe (sua7), 340 aa as printed; also called SpIIB; fission yeast TFIIB
T1 sequence (looked up): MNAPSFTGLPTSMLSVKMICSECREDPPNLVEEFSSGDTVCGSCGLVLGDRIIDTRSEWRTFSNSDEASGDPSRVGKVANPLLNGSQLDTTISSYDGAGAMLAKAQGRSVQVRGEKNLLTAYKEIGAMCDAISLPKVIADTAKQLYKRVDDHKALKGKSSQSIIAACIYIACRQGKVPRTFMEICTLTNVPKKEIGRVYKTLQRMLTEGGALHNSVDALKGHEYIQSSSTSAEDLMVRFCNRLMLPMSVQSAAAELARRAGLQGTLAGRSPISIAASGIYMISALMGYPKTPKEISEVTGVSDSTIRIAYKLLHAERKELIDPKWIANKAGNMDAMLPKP
Assay: native gel or EMSA; TBP and TFIIB (20 ng each) on 32P-labelled Ad-MLP TATA box probe; 20 mM HEPES pH 7.9, 50 mM KCl, 5 mM MgCl2, 5% glycerol; 15 min at 30 °C; 5% polyacrylamide gel at 4 °C
Settings: both partners purified

B1: Schizosaccharomyces pombe TATA-binding protein (natural protein, S. pombe, UniProt P17871 1-231, looked up)
chain: MDFALPTTASQASAFMNNSSLTFPVLPNANNEATNETADSGDAEVSKNEGVSGIVPTLQNIVATVNLDCRLDLKTIALHARNAEYNPKRFAAVIMRIREPKSTALIFASGKMVVLGGKSEDDSKLASRKYARIIQKLGFNAKFTDFKIQNIVGSCDVKFPIRLEGLAYSHGTFSSYEPELFPGLIYRMVKPKVVLLIFVSGKIVLTGAKVREEIYQAFEAIYPVLSEFRKH
notes: also called TBP; fission yeast TBP
B1: binds.
